Reference: US7351690B2, “Knockout identification of target-specific sites in peptides” (priority 2000, dated 2008)
Square brackets hold non-standard residues; d marks the D form. Ends that are not written are not given here. Nle = CCCC[C@H](N)C(=O)O

Key:
[1] = target: T1, hMC3-R (Homo sapiens, UniProt P41968); test: competitive inhibition binding assay, 125I-NDP-alpha-MSH, hMC3-R membranes; details: 1 μM test peptide; 0.4 nM 125I-NDP-alpha-MSH; hMC3-R membranes
T1 construct: expressed in transfected cells
T1 sequence (P41968 whole entry): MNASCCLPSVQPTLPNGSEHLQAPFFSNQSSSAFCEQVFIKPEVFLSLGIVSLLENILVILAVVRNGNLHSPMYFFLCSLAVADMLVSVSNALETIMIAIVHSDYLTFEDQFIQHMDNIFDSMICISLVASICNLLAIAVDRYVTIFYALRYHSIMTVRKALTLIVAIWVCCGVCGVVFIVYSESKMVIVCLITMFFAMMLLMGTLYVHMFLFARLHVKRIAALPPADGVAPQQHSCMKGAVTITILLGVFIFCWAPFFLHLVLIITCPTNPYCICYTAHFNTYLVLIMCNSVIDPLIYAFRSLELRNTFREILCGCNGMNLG
Experimental: (§1) The competitive inhibition binding assay was conducted using membranes prepared from hMC3-R, hMC4-R, hMC5-R, and B-16 mouse melanoma cells (containing MC1-R) using 0.4 nM ^125I-NDP-alpha-MSH (New England Nuclear, Boston, Mass., USA) in 50 mM HEPES buffer containing 1 mM MgCl2, 2 mM CaCl2, and 5 mM KCl, at pH 7.2. The assay tube also contained a chosen concentration of the test peptide of this invention complexed to a rhenium metal ion, typically at a 1 μM concentration, for determining its efficacy in inhibiting the binding of ^125I-NDP-alpha-MSH to its receptor. Non-specific binding was measured by complete inhibition of binding of ^125I-NDP-alpha-MSH in the assay with the presence of 1 μM alpha-MSH. Incubation was for 90 minutes at room temperature, after which the assay mixture was filtered and the membranes washed three times with ice cold buffer. The filter was dried and counted in a gamma counter for remaining radioactivity bound to the membranes. 100% specific binding was defined as the difference in radioactivity (cpm) bound to cell membranes in the absence and presence of 1 μM alpha-MSH. The cpm obtained in presence of test compounds were normalized with respect to 100% specific binding to determine the percent inhibition of ^125I-NDP-alpha MSH binding. Each assay was conducted in triplicate and the actual mean valves are described.

[2] = target: T2, hMC4-R (Homo sapiens, UniProt P32245); test: competitive inhibition binding assay, 125I-NDP-alpha-MSH, hMC4-R membranes; details: 1 μM test peptide; 0.4 nM 125I-NDP-alpha-MSH; hMC4-R membranes
T2 construct: expressed in transfected cells
T2 sequence (P32245 whole entry): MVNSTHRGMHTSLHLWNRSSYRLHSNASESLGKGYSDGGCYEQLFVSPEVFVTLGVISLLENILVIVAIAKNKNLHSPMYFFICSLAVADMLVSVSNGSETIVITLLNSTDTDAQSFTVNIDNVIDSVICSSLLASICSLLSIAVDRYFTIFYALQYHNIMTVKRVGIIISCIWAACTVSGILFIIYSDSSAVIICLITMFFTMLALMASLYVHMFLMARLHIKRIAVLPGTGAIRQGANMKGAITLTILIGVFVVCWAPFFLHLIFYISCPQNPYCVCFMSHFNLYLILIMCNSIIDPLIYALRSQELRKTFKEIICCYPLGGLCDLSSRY
Experimental: as §1

[3] = target: T3, MC1-R (Mus musculus, UniProt Q01727); test: competitive inhibition binding assay, 125I-NDP-alpha-MSH, B-16 mouse melanoma cell membranes; details: 1 μM test peptide; 0.4 nM 125I-NDP-alpha-MSH; B-16 mouse melanoma cell membranes
T3 construct: membranes prepared from hMC3-R, hMC4-R, hMC5-R, and B-16 mouse melanoma cells (containing MC1-R); endogenous in cells; host or cells: B-16 mouse melanoma cells (membranes)
T3 sequence (Q01727 whole entry): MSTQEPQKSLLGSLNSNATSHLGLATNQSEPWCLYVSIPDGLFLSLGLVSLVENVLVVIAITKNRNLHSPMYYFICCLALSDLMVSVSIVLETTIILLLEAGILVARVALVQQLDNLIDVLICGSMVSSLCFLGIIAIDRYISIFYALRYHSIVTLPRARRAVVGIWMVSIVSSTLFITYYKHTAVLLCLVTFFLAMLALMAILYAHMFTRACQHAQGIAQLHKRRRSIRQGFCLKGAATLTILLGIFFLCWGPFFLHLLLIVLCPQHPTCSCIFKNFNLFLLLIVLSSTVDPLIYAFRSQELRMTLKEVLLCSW
Experimental: as §1

[4] = target: T4, hMC5-R (Homo sapiens, UniProt P33032); test: competitive inhibition binding assay, 125I-NDP-alpha-MSH, hMC5-R membranes; details: 1 μM test peptide; 0.4 nM 125I-NDP-alpha-MSH; hMC5-R membranes
T4 construct: expressed in transfected cells
T4 sequence (P33032 whole entry): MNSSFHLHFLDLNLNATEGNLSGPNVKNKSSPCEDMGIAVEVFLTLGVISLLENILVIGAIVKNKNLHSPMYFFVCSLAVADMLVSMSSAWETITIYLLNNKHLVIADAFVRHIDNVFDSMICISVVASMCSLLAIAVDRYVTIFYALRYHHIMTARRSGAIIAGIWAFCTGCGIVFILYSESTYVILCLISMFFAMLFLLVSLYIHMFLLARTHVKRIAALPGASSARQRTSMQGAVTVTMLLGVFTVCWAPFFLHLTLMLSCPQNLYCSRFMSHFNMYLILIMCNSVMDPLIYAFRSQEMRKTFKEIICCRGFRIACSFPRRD
Experimental: as §1

| Substance | % Inhibition at 1 μM at Melanocortin Receptor 3 [1] | % Inhibition at 1 μM at Melanocortin Receptor 4 [2] | % Inhibition at 1 μM at Melanocortin Receptor 1 [3] | % Inhibition at 1 μM at Melanocortin Receptor 5 [4] |
| --- | --- | --- | --- | --- |
| Tyr-Val-Nle-Gly-His-Cys-Arg-Trp-Asp-Arg-Phe-NH2 (YV[Nle]GHCRWDRF-NH2; numbers in words are those of the source; also: oxorhenium(V) N3S1 chelate (Re=O) with Cys) [5-6] | 26% | 4% | 74% | 21% |
| Ac-Ser-Tyr-Ser-Nle-Glu-His-Phe-Arg-Trp-Gly-Cys-Lys-Pro-Val-NH2 (Ac-SYS[Nle]EHFRWGCKPV-NH2; not fully specified (bridges); printed as Ac-Ser-Tyr-Ser-Nle-Glu-His-Phe-Arg-Trp-Gly-Cys-Lys-Pro-Val-NH2; numbers in words are those of the source; also: oxorhenium(V) N3S1 chelate (Re(V)=O)) [1-4] | 0% | 0% | 72% | 6% |
| Tyr-Val-Nle-Gly-His-D-Phe-Arg-Trp-Asp-Arg-Cys-Phe-NH2 (YV[Nle]GH[dF]RWDRCF-NH2; also: Re complex) [3-2] | 91% | 89% | 99% | 100% |
| Tyr-Val-Nle-Gly-His-Phe-Arg-Trp-Asp-Arg-Phe-Cys-NH2 (GHFRWDRFC; N-terminal Tyr-Val-Nle; C-terminal amide; printed: Gly-His-Phe-Arg-Trp-Asp-Arg-Phe-Cys-) [4-1] | 69% | 36% | 56% | 41% |
| Ac-Ser-Tyr-Ser-Nle-Glu-His-Phe-Arg-Trp-Gly-Lys-D-Cys-Pro-Val-NH2 (Ac-SYS[Nle]EHFRWGK[dC]PV-NH2; not fully specified (bridges); printed as Ac-Ser-Tyr-Ser-Nle-Glu-His-Phe-Arg-Trp-Gly-Lys-D-Cys-Pro-Val-NH2; numbers in words are those of the source; also: oxorhenium(V) N3S1 chelate (Re(V)=O)) [2-3] | 41% | 25% | 91% | 38% |
| Ac-Ser-Tyr-Ser-Nle-Glu-D-Cys-His-Phe-Arg-Trp-Gly-Lys-Pro-Val-NH2 (Ac-SYS[Nle]E[dC]HFRWGKPV-NH2; numbers in words are those of the source; also: oxorhenium(V) N3S1 chelate via Cys (Re(V)=O)) [2-9] | 13% | 35% | 92% | 2% |
| Ac-Ser-Tyr-Ser-Nle-Glu-Cys-His-Phe-Arg-Trp-Gly-Lys-Pro-Val-NH2 (Ac-SYS[Nle]ECHFRWGKPV-NH2; not fully specified (bridges); printed as Ac-Ser-Tyr-Ser-Nle-Glu-Cys-His-Phe-Arg-Trp-Gly-Lys-Pro-Val-NH2; numbers in words are those of the source; also: oxorhenium(V) N3S1 chelate (Re(V)=O)) [1-9] | 0% | 3% | 74% | 6% |
| Ac-Ser-Tyr-Ser-Nle-D-Cys-Glu-His-Phe-Arg-Trp-Gly-Lys-Pro-Val-NH2 (Ac-SYS[Nle][dC]EHFRWGKPV-NH2; numbers in words are those of the source; also: oxorhenium(V) N3S1 chelate via Cys (Re(V)=O)) [2-10] | 0% | 18% | 65% | 0% |
| Ac-Ser-Tyr-Ser-Nle-Glu-His-Cys-Phe-Arg-Trp-Gly-Lys-Pro-Val-NH2 (Ac-SYS[Nle]EHCFRWGKPV-NH2; not fully specified (bridges); printed as Ac-Ser-Tyr-Ser-Nle-Glu-His-Cys-Phe-Arg-Trp-Gly-Lys-Pro-Val-NH2; numbers in words are those of the source; also: oxorhenium(V) N3S1 chelate (Re(V)=O)) [1-8] | 0% | 0% | 42% | 1% |
| Tyr-Val-Nle-Gly-His-D-Phe-Cys-Arg-Trp-Asp-Arg-Phe-NH2 (YV[Nle]GH[dF]CRWDRF-NH2; also: Re complex) [3-6] | 20% | 31% | 52% | 31% |
| Tyr-Val-Nle-Cys-Gly-His-Phe-Arg-Trp-Asp-Arg-Phe-NH2 (YV[Nle]CGHFRWDRF-NH2; not fully specified (bridges); printed as Tyr-Val-Nle-Cys-Gly-His-Phe-Arg-Trp-Asp-Arg-Phe-NH2; numbers in words are those of the source; also: oxorhenium(V) N3S1 chelate (Re=O) with Cys) [4-9] | 19% | 4% | 1% | 43% |
| Tyr-Val-Nle-Gly-Cys-D-Phe-Arg-Trp-Asp-Arg-Phe-NH2 (YV[Nle]GC[dF]RWDRF-NH2; not fully specified (bridges); printed as Tyr-Val-Nle-Gly-Cys-D-Phe-Arg-Trp-Asp-Arg-Phe-NH2; numbers in words are those of the source; also: oxorhenium(V) N3S1 chelate complex (Re=O)) [5-7] | 70% | 69% | 89% | 88% |
| Tyr-Val-Cys-Nle-Gly-His-D-Phe-Arg-Trp-Asp-Arg-Phe-NH2 (YVC[Nle]GH[dF]RWDRF-NH2; also: Re complex) [3-11] | 85% | 82% | 95% | 92% |
| Ac-Ser-Tyr-Ser-Nle-Glu-His-Phe-Cys-Arg-Trp-Gly-Lys-Pro-Val-NH2 (Ac-SYS[Nle]EHFCRWGKPV-NH2; not fully specified (bridges); printed as Ac-Ser-Tyr-Ser-Nle-Glu-His-Phe-Cys-Arg-Trp-Gly-Lys-Pro-Val-NH2; numbers in words are those of the source; also: oxorhenium(V) N3S1 chelate (Re(V)=O)) [1-7] | 0% | 0% | 68% | 0% |
